B1: Tyrosine-protein kinase BTK, residues 215 to 273; numbered along this chain, Q06187 (parent)
chain: ELKKVVALYDYMPMNANDLQLRKGDEYFILEESNLPWWRARDKNGQEGYIPSNYVTEAE

Variants of: B1
Assay: abundance fitness (aPCA) (normalised: wild type 0, dead -1); higher = more abundant; growth selection in yeast, the domain comes from the species named
Settings: Homo sapiens

Abundance fitness, by site and new letter:
G24: H -0.178, F -0.156, V -0.987, M -0.223, D -0.09, I -0.799, K -0.302, S -0.226, Y -0.193, C -0.472, Q -0.302, N -0.096, W -0.34, L -0.382, T -0.395, P -0.748, E -0.276, A -0.252
E32: Y -0.083, K -0.133, P -0.007, F -0.173, R -0.038, S -0.018, A 0.016, W -0.09, H -0.114, M -0.082, Q 0.028, I -0.202, T -0.013, V 0.014, N -0.055
A16: V -0.046, Y -0.17, W -0.105
S33: C -0.039, E -0.038, Y -0.065, T 0.005, W -0.072, P 0.006, Q 0.016, K 0.009, A 0.026, F -0.015, L -0.06, G -0.019, M -0.02, H -0.087, V -0.054, R -0.07, D -0.088
L19: C -0.444, F -0.391, N -0.701, E -0.888, D -0.936, V -0.314, M -0.105, G -0.851, Q -0.711, Y -0.66, A -0.796, I -0.124, P -0.515, T -0.75, H -0.703, R -0.792, S -0.695
L30: P -0.365, S -0.175, R -0.223, V -0.015, F -0.038, I -0.026, T -0.03, Q -0.159, G -0.398, E -0.104, N -0.346, K -0.076, W -0.147, M -0.087, C -0.207, D -0.397, Y -0.056, A -0.12
P36: G -0.089, E -0.024, C -0.072, D -0.013, F -0.437, A 0.012
D25: Y -0.101, A -0.046, P -1.15, R -0.068, M -0.005, F -0.107, K -0.067, Q -0.013, H -0.01, E 0.019, G -0.073, N -0.074, L -0.061, S -0.071
Y27: R -0.772, A -0.339, M -0.362, D -0.692, W -0.96, G -0.745, N -0.537, F -0.157, K -0.771, T -0.698, E -0.646, S -0.69, L -0.053, H -0.754, P -0.624, C -0.299, V -0.022, I -0.054
L35: I 0.005, F 0.012, S -0.041, N -0.06, C -0.082, D 0.05, P 0, A -0.08, H -0.002, V -0.017, K -0.039, E -0.022, R -0.006, Q -0.012, M -0.028, W -0.015
N34: P 0.031, M 0.014, V 0.065, R -0.002, L 0.033, H -0.066, A 0.026, D 0.073, C 0.046, Y -0.102, G 0.07, S 0.033, T 0.029, W -0.032, E 0.037, Q 0.118
N17: V -0.068, Q 0.033, S -0.002, D -0.011, M -0.017, K -0.052, H 0.03, W -0.115, Y -0.088, C -0.01, A -0.041, P -0.123, L -0.019, R -0.001, T 0.002, E -0.024, I -0.187, F -0.029
Q20: L -0.055, E -0.001, I -0.084, A -0.007, C -0.06, Y -0.037, K -0.075, G -0.001, N -0.152, W -0.131, F -0.2, D -0.168, S -0.007, H -0.075, V -0.082, M -0.073, P -0.037, T -0.043, R -0.013
R22: E -0.041, H -0.08, L -0.002, G -0.257, Y 0, Q -0.011, A -0.032, T -0.037, I -0.026, F -0.036, K 0.049, C -0.004, S -0.003, N -0.012, W -0.099, V 0.031, P -0.768
L21: E -0.793, D -1.05, S -0.811, V -0.079, K -0.892, H -0.761, F -1.01, Y -1.09, T -0.523, G -1.06, W -1.09, P -0.724, C -0.349, M -0.079, Q -0.754, A -0.671, N -0.806, R -0.998
I29: D -0.704, L -0.008, N -0.698, V -0.002, W -0.855, H -0.99, G -0.847, S -0.544, A -0.194, R -0.436, F -0.799, P -0.483, M -0.229, Y -1.02, T -0.212, K -0.241, E -0.58, Q -0.624
K23: M -0.169, Q -0.077, P -0.371, C -0.037, I -0.207, L -0.181, E -0.058, H -0.019, T -0.112, V -0.072, R -0.056, D -0.522, W -0.372, A -0.024, G -0.143
F28: D -0.018, Y -0.068, Q -0.069, I -0.021, N -0.077, L -0.004, A -0.055, K -0.141, R -0.012, C -0.096, M 0.017, T -0.02, S -0.019, P -0.631, E 0.002, W 0.032, G -0.049, H -0.07, V -0.009
E31: C -0.034, D -0.058, G -0.051, H -0.054, R -0.028, P -0.162, S 0.05, F -0.005, W -0.105, V -0.119, M 0.026, L -0.122, N -0.058, T -0.04, Q 0.072, A -0.008, I -0.117
E26: R -0.068, W -0.037, Y -0.082, V -0.032, C -0.084, I -0.013, D -0.061, H -0.134, S 0, N -0.098, G -0.191, Q -0.079, F -0.024, L -0.01, P -0.041, A -0.075, T 0.011, K -0.01
D18: H 0.146, Y 0.025, S -0.051, P -0.469, E 0.05, R 0.004, Q 0.018, K -0.048, V -0.061, N 0.009, A -0.017, W -0.07, F -0.04, T -0.034, L -0.073, G -0.038, I -0.033

Source: the Human Domainome abundance scans (Beltran et al. 2025)
